Earlier results, collected in publication PMC3556358.

Target: insulin receptor (Homo sapiens) (UniProt P06213)
UniProt P06213, sequence (P06213 763-1382): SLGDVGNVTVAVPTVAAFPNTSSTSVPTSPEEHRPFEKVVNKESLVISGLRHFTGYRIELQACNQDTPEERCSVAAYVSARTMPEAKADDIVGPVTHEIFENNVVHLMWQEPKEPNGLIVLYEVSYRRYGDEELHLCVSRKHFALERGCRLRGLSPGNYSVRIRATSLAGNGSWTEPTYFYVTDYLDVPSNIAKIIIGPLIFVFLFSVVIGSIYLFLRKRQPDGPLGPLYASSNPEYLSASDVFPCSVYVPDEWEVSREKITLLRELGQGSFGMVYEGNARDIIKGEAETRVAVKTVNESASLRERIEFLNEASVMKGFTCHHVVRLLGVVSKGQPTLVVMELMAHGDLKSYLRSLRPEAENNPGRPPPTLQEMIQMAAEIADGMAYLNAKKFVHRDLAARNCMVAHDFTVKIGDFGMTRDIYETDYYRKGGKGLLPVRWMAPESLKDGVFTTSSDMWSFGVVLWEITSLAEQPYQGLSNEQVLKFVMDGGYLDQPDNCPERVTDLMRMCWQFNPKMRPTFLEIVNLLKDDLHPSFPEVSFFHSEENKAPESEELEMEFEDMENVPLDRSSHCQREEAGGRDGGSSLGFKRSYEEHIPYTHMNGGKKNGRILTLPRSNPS

insulin, sequence (P01308 90-110): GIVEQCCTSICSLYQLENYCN

Substance: insulin (from UniProt P01308)
- Kd: 0.3 nM
